In US20110081661A1, “Modified photoproteins with increased affinity for calcium and enhanced bioluminescence and uses thereof” (Millipore Corporation, priority 2009, published 2011):
Read-outs that look alike come from different tables or passages of the source.

T1: EP1 Receptor (Homo sapiens, UniProt P34995)
T1 construct: host or cells: HEK293T
T1 sequence (P34995 1-402): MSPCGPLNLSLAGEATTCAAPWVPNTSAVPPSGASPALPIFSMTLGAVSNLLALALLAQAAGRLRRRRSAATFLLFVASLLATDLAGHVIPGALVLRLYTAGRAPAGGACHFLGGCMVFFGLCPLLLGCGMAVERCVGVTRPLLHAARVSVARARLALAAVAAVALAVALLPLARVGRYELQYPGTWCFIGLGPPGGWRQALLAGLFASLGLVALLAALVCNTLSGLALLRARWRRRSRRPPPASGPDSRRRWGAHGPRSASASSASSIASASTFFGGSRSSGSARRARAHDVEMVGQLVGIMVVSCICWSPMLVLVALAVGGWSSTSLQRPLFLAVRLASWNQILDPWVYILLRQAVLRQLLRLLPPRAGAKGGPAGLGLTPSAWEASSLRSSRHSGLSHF

T2: GIP Receptor (Homo sapiens, UniProt P48546)
T2 construct: host or cells: HEK293T
T2 sequence (P48546 22-466): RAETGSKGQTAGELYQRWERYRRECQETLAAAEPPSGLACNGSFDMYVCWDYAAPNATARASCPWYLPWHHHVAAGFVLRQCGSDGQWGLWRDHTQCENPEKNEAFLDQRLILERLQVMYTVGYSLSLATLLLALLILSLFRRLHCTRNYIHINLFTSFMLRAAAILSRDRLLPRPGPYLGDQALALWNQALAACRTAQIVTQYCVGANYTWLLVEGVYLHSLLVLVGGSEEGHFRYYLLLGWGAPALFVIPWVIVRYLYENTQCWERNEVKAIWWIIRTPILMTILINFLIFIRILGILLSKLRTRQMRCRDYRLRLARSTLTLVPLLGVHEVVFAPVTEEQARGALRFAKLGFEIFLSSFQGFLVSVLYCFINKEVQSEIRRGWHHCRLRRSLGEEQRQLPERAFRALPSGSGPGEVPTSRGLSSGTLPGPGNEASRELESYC


How the values were obtained:
[1] = target: T1, EP1 Receptor; assay: Fluorescent calcium assay, stable cell line, EP1 Receptor; assay type: cell-based; conditions: read-out: EP1 Receptor EC50 for PGE2; Fluorescent Ca^2+ assay, cell line stably expressing the receptor
[2] = target: T1, EP1 Receptor; assay type: cell-based; conditions: read-out: EP1 Receptor EC50 for PGE2
Protocol: The cells were subsequently thawed and either directly placed into FreeStyle media (INVITROGEN) containing 5 μM coelenterazine (Thaw/Assay), or plated in a flask overnight in growth media consisting of DMEM/F12 containing 10% fetal bovine serum, non-essential amino acids, and penicillin/streptomycin prior to loading with coelenterazine (Thaw/ON Recovery). After loading with coelenterazine for 3-4 h, the cells were centrifuged and resuspended in HBSS with calcium and magnesium.
Thaw/Assay indicates dose response of cells that were thawed and directly loaded with coelenterazine prior to assay, and Thaw/ON Recovery indicates dose response of cells allowed to recover in growth media overnight prior to loading and assay. […] The EC50 values for activation of each receptor by its ligand for each cell treatment method were determined as described above for FIG. 5 for cytosolic clytin K168D photoprotein transfected into HEK293T cells with cotransfected GIP Receptor and G protein.

[3] = Calcium EC50 of mitochondrially targeted photoproteins in HEK293T cells without cotransfected GPCR or G protein (Table II); assay type: cell-based; conditions: no cotransfected GPCR or G protein
[4] = target: T3, H1 histamine receptor (Homo sapiens, UniProt P35367); assay: GPCR-mediated versus total bioluminescence in U-2OS cells (FIG. 4); assay type: cell-based; conditions: 10 μM histamine vs Triton X-100 with 1 mM calcium
T3 construct: expressed in transfected cells; host or cells: U-2OS
T3 sequence (P35367 whole entry): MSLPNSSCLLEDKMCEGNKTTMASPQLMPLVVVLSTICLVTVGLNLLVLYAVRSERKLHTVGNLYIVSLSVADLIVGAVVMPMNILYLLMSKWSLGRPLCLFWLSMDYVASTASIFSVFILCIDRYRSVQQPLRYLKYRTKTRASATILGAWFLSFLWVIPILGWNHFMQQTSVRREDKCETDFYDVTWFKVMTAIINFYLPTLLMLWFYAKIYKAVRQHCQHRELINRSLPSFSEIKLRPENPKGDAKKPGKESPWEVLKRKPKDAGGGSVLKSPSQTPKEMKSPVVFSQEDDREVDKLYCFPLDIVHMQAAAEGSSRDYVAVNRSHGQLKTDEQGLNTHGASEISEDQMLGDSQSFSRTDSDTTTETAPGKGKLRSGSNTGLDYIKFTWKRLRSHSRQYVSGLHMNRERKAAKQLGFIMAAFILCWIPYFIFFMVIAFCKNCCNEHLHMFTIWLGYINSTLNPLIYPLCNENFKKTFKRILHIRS
Protocol: In another experiment, the ability of the various photoproteins to detect calcium flux in live cells was assessed by adding varying concentrations of histamine to cells in order to activate the H1 histamine receptor followed by measurement of bioluminescence of the various photoproteins. U-2OS cells were transfected with a cDNA encoding H1 histamine receptor along with a cDNA encoding either a wild-type photoprotein or a modified photoprotein according to the invention, as described above in Example 2, except that Lipofectamine-2000 (INVITROGEN) was used as the transfection reagent. On the second day, the cells were trypsinized, counted, and plated in a white tissue-culture treated 96-well plate (COSTAR) at a density of about 50,000 cells/well in growth media consisting of DMEM containing 10% fetal bovine serum, non-essential amino acids, HEPES and penicillin/streptomycin. On the third day, the medium was removed and cells were washed once with 200 μl/well of HBSS/HEPES (containing Ca^2+). Cells were subsequently incubated with 5 μM coelenterazine in HBSS/HEPES (containing Ca^2+) in a volume of 200 μl/well, for 3-4 hours at room temperature in the dark. After incubation, the coelenterazine solution was removed and cells were washed and replaced with HBSS/HEPES buffer containing both Ca^2+ and Mg^2+. 50 μl/well of histamine at varying concentrations in HBSS/HEPES containing both Ca^2+ and Mg^2+ was added to the cells and total bioluminescence was measured at 20 seconds using a Victor2 luminometer.
In an exemplary experiment, U-2OS cells were transfected, plated and loaded with coelenterazine as described in Example 3. Luminescence induced by buffer alone or by 10 μM histamine was measured also as described in Example 3. Additionally, luminescence induced by addition of Triton X-100 in the presence of 1 mM calcium was also determined in order to assess the total amount of active photoprotein detectable using saturating calcium concentrations in cells.

[5] = background statement; cited from earlier work
[6] = target: T2, GIP Receptor; assay: GIP receptor-mediated bioluminescence in HEK293T cells with chimeric promiscuous G protein (FIG. 5, Table II); assay type: cell-based

Molecule	EC50 [1] [nM]	EC50 ([2]; Luminescent Assay, Thaw/Assay) [nM]	EC50 ([2]; Luminescent assay, Thaw/ON Recovery) [nM]	EC50 [3] [nM]	GPCR-mediated signal as % of the total signal [4]	affinity for calcium [5]	Max signal with GIP (RLU × 10^−5) ([6]; HEK293T cells, GIP Receptor + promiscuous G protein)	EC50 ([6]; HEK293T cells, GIP Receptor + promiscuous G protein, luminescence vs GIP concentration) [nM]	% GPCR/total ([6]; signal induced by maximal GIP (1 μM) as percentage of signal induced by Triton X-100 with 1 mM Ca^2+) [%]	Signal: background with GIP ([6]; signal induced by maximal GIP (1 μM) divided by signal induced by buffer alone)
CCCCC[C@H](O)/C=C/[C@H]1[C@H](O)CC(=O)[C@@H]1C/C=C\CCCC(=O)O [PGE2, prostaglandin E2]	3	6	10							
Cyto-aequorin: Wild-type Aequorin (wt-Aequorin) amino acid sequence, SEQ ID NO:2; cytosolic (protein, listed as Aequorea victoria) MTSKQYSVKLTSDFDNPRWIGRHKHMFNFLDVNHNGKISLDEMVYKASDIVINNLGATPEQAKRHKDAVEAFFGGAGMKYGVETDWPAYIEGWKKLATDELEKYAKNEPTLIRIWGDALFDIVDKDQNGAITLDEWKAYTKAAGIIQSSEDCEETFRVCDIDESGQLDVDEMTRQHLGFWYTMDPACEKLYGGAVP				235	about 30%	around 7 μM	1.21	6.67	13.0	29.4
